Experimental findings from article PMC9599597 are described below.

The test has as its target F5_SusD-like protein (uncultured human gut Bacteroides strain). The experiment in a line: SEC; Superdex 200 16/600 column; 20 mM Tris-HCl, 150 mM NaCl, pH 7.5.

The term stoichiometry N denotes a count of units in the complex or per binding partner. F5_SusD-like protein (natural protein) returned a stoichiometry N of 2.
